{"source": "paper PMC5869396", "molecular_target": "recombinant Shiga toxin-2a B subunit (rStx2aB), C-terminal 6xHis tag (E. coli O157:H7 strain EDL933)", "test": "SEC; rStx2aB on Superdex-75 16/60 in PBS, 1 mL/min", "data": [{"substance": "recombinant Shiga toxin-2a B subunit (rStx2aB), C-terminal 6xHis tag (domain or fragment)", "values": [{"measurement": "stoichiometry N", "result": 5}]}]}
